Source: PMC11255334, “Acetyl-CoA synthetase activity is enzymatically regulated by lysine acetylation using acetyl-CoA or acetyl-phosphate as donor molecule” (Nature Communications, 2024)
Residue numbers refer to the chain shown, from its start. In names and notes the source's numbering stands.

B1: Bacillus subtilis AMP-forming acetyl-CoA synthetase AcsA (enzyme, UniProt P39062 1-572, looked up)
chain: MNLKALPAIEGDHNLKNYEETYRHFDWAEAEKHFSWHETGKLNAAYEAIDRHAESFRKNKVALYYKDAKRDEKYTFKEMKEESNRAGNVLRRYGNVEKGDRVFIFMPRSPELYFIMLGAIKIGAIAGPLFEAFMEGAVKDRLENSEAKVVVTTPELLERIPVDKLPHLQHVFVVGGEAESGTNIINYDEAAKQESTRLDIEWMDKKDGFLLHYTSGSTGTPKGVLHVHEAMIQQYQTGKWVLDLKEEDIYWCTADPGWVTGTVYGIFAPWLNGATNVIVGGRFSPESWYGTIEQLGVNVWYSAPTAFRMLMGAGDEMAAKYDLTSLRHVLSVGEPLNPEVIRWGHKVFNKRIHDTWWMTETGSQLICNYPCMDIKPGSMGKPIPGVEAAIVDNQGNELPPYRMGNLAIKKGWPSMMHTIWNNPEKYESYFMPGGWYVSGDSAYMDEEGYFWFQGRVDDVIMTSGERVGPFEVESKLVEHPAIAEAGVIGKPDPVRGEIIKAFIALREGFEPSDKLKEEIRLFVKQGLAAHAAPREIEFKDKLPKTRSGKIMRRVLKAWELNLPAGDLSTMED
notes: AMP-forming acetyl-CoA synthetase AcsA, Bacillus subtilis, UniProt P39062; synthetic gene codon optimized for E. coli; also called AcsA wildtype; non-acetylated AcsA; source: E. coli BL21 (DE3), pET45b(+), purified (HisTrap FF, Ni2+)
B2: K549-acetylated Bacillus subtilis AcsA (enzyme, UniProt P39062 1-572, looked up)
chain: B1 chain
modifications: acetyl-lysine at K549
notes: AMP-forming acetyl-CoA synthetase AcsA, Bacillus subtilis, UniProt P39062, acetylated at K549 by AcuA; Formed in the sample from m1 and m2 before the SEC run; K549 is the major acceptor site by the K549R control; also called AcsA AcK549; acetylated AcsA; source: E. coli BL21 (DE3), purified; acetylated in vitro by AcuA with acetyl-CoA, or with AcP and CoA
B3: AcuA W140A (enzyme, Bacillus subtilis, UniProt P39065 1-210, looked up)
chain: MEHHKTYHSANIKTATGSLLIEGPVSPEDLAGYEFHKDLTAFRPPREQHEALVDIAGLPEGRIIIARDGRTIVGYVTYLYPDPLERWSEGNMEDLIELGAIEVAPDYRGCAVGKTLLTVSMMDEQMENYIVMTTEYYWHADLKGMKKDVWEYRKIMEKMMNAGGLVWFATDEPEISSHPANCLMARIGKNVSQESIEQFDRLRFYHRYMY
notes: AcuA, Bacillus subtilis, UniProt P39065, with W140A
B4: AcuA E97Q/E135Q (enzyme, Bacillus subtilis, UniProt P39065 1-210, looked up)
chain: B3 chain with E97Q, E135Q, A140W
notes: AcuA, Bacillus subtilis, UniProt P39065, with E97Q and E135Q; also called double mutant AcuA E97Q/E135Q
B5: AcuA W140F (enzyme, Bacillus subtilis, UniProt P39065 1-210, looked up)
chain: B3 chain with A140F
notes: AcuA, Bacillus subtilis, UniProt P39065, with W140F

Assays:
AcsA•AcuA complex = molecular target: T1, AcsA•AcuA complex (Bacillus subtilis, UniProt P39065); experiment: lysine acetylation of AcsA K549, anti-AcK immunoblot and SEC; type: biochemical
T1 construct: both N-terminally His6-tagged, E. coli BL21 (DE3); AcuA 25,484 g/mol, monomer alone; apparent heterotetramer; AcsA K549 is the acetyl acceptor; with Acetyl-coenzyme A synthetase (AMP-forming)

[1] = molecular target: the molecule itself; experiment: SEC; analytical SEC of the single proteins, Superdex 200 10/300 GL, 50 mM Tris/HCl pH 8, 50 mM KCl, 2 mM β-mercaptoethanol; 100 µl of 50–100 µM injected; MW from a calibration curve
[2] = molecular target: the molecule itself; experiment: SEC; analytical SEC of the preformed equimolar AcsA•AcuA complex pretreated with a tenfold molar excess of acetyl-CoA (excess also varied), 30 min at room temperature; fractions checked by anti-AcK immunoblot and Ponceau S
[3] = molecular target: B1; experiment: SEC; analytical SEC of equimolar AcsA and AcuA (wild type or mutants), incubated 30 min at room temperature, Superdex 200 10/300 GL, 50 mM Tris/HCl pH 8, 50 mM KCl, 2 mM β-mercaptoethanol; 100 µl of 50–100 µM; without ligand or with a tenfold molar excess of CoA or AcP alone; settings: both partners purified

T1 sequence (P39065 whole entry, one chain of several): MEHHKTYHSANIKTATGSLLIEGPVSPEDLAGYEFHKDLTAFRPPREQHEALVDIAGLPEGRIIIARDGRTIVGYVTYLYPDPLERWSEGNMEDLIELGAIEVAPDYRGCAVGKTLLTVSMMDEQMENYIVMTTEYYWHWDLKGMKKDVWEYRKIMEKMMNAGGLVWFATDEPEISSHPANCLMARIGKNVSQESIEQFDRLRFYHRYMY

Molecule: CC(=O)SCCNC(=O)CCNC(=O)[C@H](O)C(C)(C)COP(=O)(O)OP(=O)(O)OC[C@H]1O[C@@H](n2cnc3c(N)ncnc32)[C@H](O)[C@@H]1OP(=O)(O)O [acetyl-CoA]
lysine acetylation of AcsA K549, anti-AcK immunoblot and SEC (AcsA•AcuA complex; 200 µM acetyl-CoA, AcuA 5 µM, AcsA 20 µM, acetyltransferase activity): addition of acetyl-CoA to AcsA and AcuA resulted in a strong acetylation of AcsA

Molecule: CC(=O)OP(=O)(O)O [AcP]
lysine acetylation of AcsA K549, anti-AcK immunoblot and SEC (AcsA•AcuA complex; intrinsic phosphotransacetylase activity, AcP with CoA as needed co-substrate, 37 °C): upon addition of CoA and AcP, AcsA was strongly acetylated

Molecule: B1
stoichiometry N [1]: 2

Molecule: B2
stoichiometry N [2]: 2

Molecule: B3
binding result [3]: binds

Molecule: B4
binding result [3]: binds

Molecule: B5
binding result [3]: binds
